The record followed here is paper PMC6613838 (Autophagy, 2019).

The chains are these.
B1: GST-UVRAG FL (natural protein)
chain: MSASASVGGPVPQPPPGPAAALPPGSAARALHVELPSQQRRLRHLRNIAARNIVNRNGHQLLDTYFTLHLCSTEKIYKEFYRSEVIKNSLNPTWRSLDFGIMPDRLDTSVSCFVVKIWGGKENIYQLLIEWKVCLDGLKYLGQQIHARNQNEIIFGLNDGYYGAPFEHKGYSNAQKTILLQVDQNCVRNSYDVFSLLRLHRAQCAIKQTQVTVQKIGKEIEEKLRLTSTSNELKKKSECLQLKILVLQNELERQKKALGREVALLHKQQIALQDKGSAFSAEHLKLQLQKESLNELRKECTAKRELFLKTNAQLTIRCRQLLSELSYIYPIDLNEHKDYFVCGVKLPNSEDFQAKDDGSIAVALGYTAHLVSMISFFLQVPLRYPIIHKGSRSTIKDNINDKLTEKEREFPLYPKGGEKLQFDYGVYLLNKNIAQLRYQHGLGTPDLRQTLPNLKNFMEHGLMVRCDRHHTSSAIPVPKRQSSIFGGADVGFSGGIPSPDKGHRKRASSENERLQYKTPPPSYNSALAQPVTTVPSMGETERKITSLSSSLDTSLDFSKENKKKGEDLVGSLNGGHANVHPSQEQGEALSGHRATVNGTLLPSEQAGSASVQLPGEFHPVSEAELCCTVEQAEEIIGLEATGFASGDQLEAFNCIPVDSAVAVECDEQVLGEFEEFSRRIYALNENVSSFRRPRRSSDK

Experiment [1] concerns the target His-SMURF1 (E. coli) (human, UniProt Q9HCE7-2 1-731). Kind of experiment: pull-down.
In experiment [2] the target is B1. The experiment can be described thus: pull-down.

Consider B1, for which, in experiment [1], the binding result is reported as “binds”.

B2: His-CSNK1A1 (enzyme)
chain: MASSSGSKAEFIVGGKYKLVRKIGSGSFGDIYLAINITNGEEVAVKLESQKARHPQLLYESKLYKILQGGVGIPHIRWYGQEKDYNVLVMDLLGPSLEDLFNFCSRRFTMKTVLMLADQMISRIEYVHTKNFIHRDIKPDNFLMGIGRHCNKLFLIDFGLAKKYRDNRTRQHIPYREDKNLTGTARYASINAHLGIEQSRRDDMESLGYVLMYFNRTSLPWQGLKAATKKQKYEKISEKKMSTPVEVLCKGFPAEFAMYLNYCRGLRFEEAPDYMYLRQLFRILFRTLNHQYDYTFDWTMLKQKAAQQAASSSGQGQQAQTPTGKQTDKTKSNMKGF
Turning to B2, the binding result in experiment [2] was “binds”.

B3: GST-UVRAG C-terminal fragment (501–699 aa) (domain or fragment)
chain: KGHRKRASSENERLQYKTPPPSYNSALAQPVTTVPSMGETERKITSLSSSLDTSLDFSKENKKKGEDLVGSLNGGHANVHPSQEQGEALSGHRATVNGTLLPSEQAGSASVQLPGEFHPVSEAELCCTVEQAEEIIGLEATGFASGDQLEAFNCIPVDSAVAVECDEQVLGEFEEFSRRIYALNENVSSFRRPRRSSDK
For B3, the binding result in experiment [1] is reported as “binds”.
